A protein production outcome set (Wang et al. 2014)

Test: label from the status in PepcDB records

Sequence | protein production
MIYLHAIDPIAFSLGPVKVHWYGLMYLAGFGAAWCLGRQRIQAGRLLGVNIDGFSDLLFYAMMGVVLGGRVGYMLFYAFHDFLQEPLLLFRVWEGGMSFHGGLIGVLLAVAWWSRRQRMHMFDVVDFCAPLVPVGLGFGRLGNFIGGELWGKLTHNGWGVIFPRAPLSDVPAGQLAMQDVINFVQIQEHYAAGLLGHYARHPSQLYEAFLEGLVMFIVLWLFSRKPRPRYAVSGLFALLYGVFRFLVEFVRMPDNGVYVAFGWLTRGQILSLPLIVIGLFLFWLSCRSPVLQPVPAPEVAK | failed
MIYLQNFITTTIQLNIYLILVIGLLYVIIHYYRNKGVNAFLDIYLNYIPVLTHEFGHVLFNKLAGGKAKDLVIVTSPRERKVTSQQGYAITQSKGYLGQFITTIGGYLMPPLMFLTGLVSIHYQYPSIFITIYLFIFIYYLFITSRKLSPLIVIILISSLLYLVFKQDHQWFIYDIVTLSYHFILGVLLGEILQSSWTIFRLTFQRPKPSWDGSALTKVTRVPTFIFSLVWILFNLYTVYLLIKYTIL | failed
MIYMDVYMNSYFPHNLDTENSIIDLSKWQELADLIVDIFGADCGAIIKFTGHSFTTMLSSRNEASFLHQGTEWSSDSKSFCRTIIKTGKPLYIANAVEDEYWFDAPPVVNGPVRSYCGVPIFSPDGSIYGTICAIDTKSTRYEDALTKLLLHLSKLITSDLKIAEKAEQHRLMALTDQTTGLLNRRGLNVLSEQKFKDAKRNQDHIGVLYLDIDNLKIINDNFGHLAGDKCIKLLATILKKMVRQSDLIARIGGDEFTVLALINSENTNELDHLSMRIREVYQNEIKDNAELNMSNISIGQHLVSYDSNASLKEMLAKADSLMYQEKIDKS | failed
MIYQVDGKTIVLVLEQGEDIVEAVTDIAREQNGKFGTVSGIGACSSAELNFYNLETQTYEKKLIDEPLELIGLMGNISHIDEQPFAHLHATFGTNQYETLSGHLTKAVVSATAEIIITMTNLDINRKHNETIGLNLLDLLEHHHHHH | not failed
MIYRILIVISIFMISFSGFGQTDYFKLGKEYYNNGEYEKAAATYSEVIKKEENLPKVYETYLSTLYKLKNYTEAEKIIKKMVKVGSPENYTYRIDYALFYKQQNLTDKAEKEFSAFVSDIQKNSTAVDISGAYLQKLGEYTWAKQLYLQARKNFDRYAYCFELSSIYNRLGQTENMFDELLNYLSVNPASLEEVQNTFQNELDTDEKFALFETKVYDRINKDPNDIVYNQLLLWLNLQRKNFTKAFIQAKAIDKRNRQTGTTVLEVGNIALENKDYDAAGACFQYVSDNFKESFNYSIARRLLIQTREEQIKNTFPVDKQKIVGLISDYNQLLKENGRTAYTLESLRNMALLNAFYLDKRDTAVVILKSLIENPYTDNRLRGKAKIDLGDIYLLTGEPWESTLLYSQVEKDFKEDQLGHEAKLRNAELYYYKGEFVLAQEQLDVLKLATTREISNDAIQLSVFITENSGLDSTTDALKDYSAIQLLLFQRKYDEALQAANALLKQYPHHELTDDVYWLQATILRQTGKPTEALEMLKKISTGYADDLLGDDALFTSAQIFDYDLKNTEKAMQLYQDFLIQYTNSVYVTEARKRFRILRGDKI | failed
MIYYLIGVALFIFMLEQLVPGWKLPKVSTWVARVIFLNIVQVSIALLAGITWNKWMMGHSLLHTSDALPPLLAGFAAYFVNTFVTYWWHRARHANDTLWRLFHQLHHAPQRIEVFTSFYKHPTEMVFNSLLGSFVAYVVMGISIEAGAYYIMFAALGEMFYHSNLRTPHVLGYLFQRPEMHRIHHQRDRHECNYSDFPIWDMLFGTYENPRRIDEPQGFAGDKEQQFVDMLLFRDVHSLPGKTQPAPVLVKPDVR | failed
MKAAEKYAKDVVAGKILVCKWIMLLAQRHLDDLAVSKRKDFPYKFDPAKAEKVAKFLQLLPHTKGKWGGKKQLIKLEPWQLFSVCVPFGWVRKKDGTRRYRTILVFVPRKNGKSIIGGGVGLYMFVADGEFGAEVYSGATTEKQAWEVFRPAKLMVERTDDLREHYGVDVNASNMVVLADGSRFEPVIGKPGDGSSPSCSVVDEYHEHQDSTLYDTMETGMGAREQPIMLVITTAGSSIGGPCHQLIRDSERMLEGVIDRPDLWPALYTIDQGDDWTSEIALRKANPNFGISVAEDFLLARQRDAMQSATKQATFRTKHLNEWVGAKNAWLNMLRWKEAPVRKSLAELEGRSCYGSLDLASKIDIAANLLIFPPHGDDPFWHIHARYYLPEARVLEELDSNTARYREFDALGLLTLTDGEVTDFEVIKEDMREFAGRFDIRAYAYDPWQATQLAQEMDAEGLPMVELRQTVQNLSEPMKEVEALVLQRKLAHGDCPVLTWMASNVVAKLDVKDNIYPNKERPENKIDGMVSLITGCAVAIKLGIDDSGHFDDFLASPIVVG | failed
MKAAPARSAAYDNPYAKRLFLIIDSLPQMQRALAMTLSSFGANTVEYASKASDALAKMAKYEFDVVLCDYDLGNGYDGLYLFEEIRERNLLKQSCVFMIVTGERRAQRVISAAELAPDDYLLKPFTGEVLRDRLERAMRKREAFRLVDENILRHDYLSAIETCGRKIEENGEFALDFMRLKGSLALKINDFDTARDAYMQVLRLRPATWAKMGLAKSLAGLKSHDEARLLFEAVLADNNQVMEAYDWLARLYRGNHDLGRAQHTLQTAADMSPVVFRRQQQLAQVAVLNHDLAAAEAACQQTLDIAKYTWHRSPTHYAALLRVQLARGDNGNAVRTLANLKHDYRYNEEGEWLAGVMDSQLQAKNGNADKARELLEAAGERFKQLAPKLDQESQLEYARACYQQGRDGQGNAVMEYLVRNHHDDEDMLEHFGDMFEEIGLSQAGRQLIAQNVKSVLELNNQAVREAQSGQFDAAIERFVKALDEMPQNVQIMLNLINAVLAYVSQNGWHESHMRRAYELLGKVRDTAPTNNKFQKILQSWRLLVDKMDKPQWAL | failed
MKAERPDTRKLKALKRGHIAEYRAALCLMLKGYRIVAMRYRTRLGEIDIIARRGDLVACVEVKARVSLEDAVFAVTDTAQRRIRAASDLWLSRQGDFHRLSVRYDIVAVTPWRWPRHLPDAF | failed
MKAIIMAGGQGKRLRPLTCNLPKPMMPIMQKPVLQYIIELLKKHGINEIGITLHYLPDEVMDYFGDGKELGVNIHYFIEQSPLGTAGSVRNAESFLDETFVVISGDALTDVNLTNILQYHKEKNAMVTIVLKKVTIPLEYGVAITDTEGRISNFIEKPGWGEIFSDKANTGIYVMEPGIFEFYNKDKKFDFSEELFPELLKSGKEIFGYVVNDYWRDIGNIEQFMKCNFDILNGYVDVDVDIDASQHQKGVWIGKNTIVSDNVKVIPPVYIGDNSEIRYGAEIGPFAVIGRNNIISEMATIKRSIIFENCYIGSGAELRGSVVSNNVQVGGGVSTFEESAIGTGSLVGEKSVVKAGVKIWPDKVIGSKTIIKTNVVWGENRCKVLFGKEGISGEINVELTPEFVSKLASAFASNLRMNSKVVVCSDYNLAAEMLKYSFVSGLISMGIEVYSAKEMTIPMLRFSTAYFKADAAVYIYCKGSNKEKVNILFIDKDGIMISRSMEKKIANSFLREDFRRTRANNFKRLRDFGECMGYYEDYIKENLCIQEIRNSGLKVAVSMENKLIKNEVKSIFSDLKIQYSIYDNYADLEGLKKEVIEKKMDFGVCISENCDKAIIIDENANIISTQMYESIKALILISVYKFKTIVAPVNSSKALKYIAKRYNCKYVKSKISERYILNEYILNEKDKNIKEVLFSYLSSTDALNIVINIINILARGKIKLSELMERIPNYILREKEIACSWDNKGKIMRSLIEENISKSIELIEGIKVNYEDAWVLIIPDSDEPICKIYAESNDEEKTDKIINEFESEIELFMKN | failed
MKAKAILLASVLLVGCQTSQNTGNVQQHAQSLSAAGQGEAGKFTSQARWMDDGTSIAPDQDLWAFIGDELKMGIPENSRIREQKQKYLRNKSYLHDVTLRAEPYMYWIAGQVKKRNMPMELVLLPIVESAFDPHATSGANAAGIWQIIPSTGRNYGLKQTRNYDARRDVVASTTAALDMMQRLNKMFDGDWLLTVAAYNSGEGRVMRAIKANKARGKPTDFWSLSLPRETKLYVPKMLALSEILKNSKRYGVRLPTTDESRALARVRLNSPVEMAQVADMAGMSISKLKTFNAGVKGSTLGVSGPQYVMVPKKHAEQLRESLASGEIDAVQSQLIADNTPLNSRSYKVRSGDTLSGIASRLGVSTKDLQQWNNLRGSRLKIGQSLTVGAGSSAQRLANNSDSITYRVRKGDSLSSIARRHGVNIKDVMRWNHDTDNLQPGDQLTLFVKDNSTPDSLEHHHHHH | not failed
MKAKLENRLERQLQQLSYARGLILDEIGYLPMTSEEASLFFRLLNRRYEKASIILTSNKGFADWGEMFGDNVLATAILDRLLHHSTTLNIKGESYQLKEKRKVGALTKSATPISEDEMAESGQQK | failed
MKAKREQILIRTSWISTIGNAILSTSKIIVGLWAGSLAVLGDGIDSATDVIISIVMIFTARIISQPPSKKYVFGYEKAEGIATKILSLVIFYAGVQMLISSIGSIFSEEAKEIPSAIAIYVTIFSIIGKLLLALYQYKQGKKIDSSMLTANAINMRNDVIISSGVLLGLIFTFIFKLPILDSITGLIISLFIIKSSIGIFIDSNVELMDGVKDVNVYNKIFEAVETVPGASNPHRVRSRMIGNLYMITLDIEVNPQITITQAHQIADAVEKSIKSSIDNVYDILVHVEPAGECQTDEKFGIDKGMVN | failed
MKALEGFTILLALVGVIPRIEGCIRVPPGVTAAKSPVDDNYVLSVNGNTQSYVPGQRYNVSLSAFSGLSFISFMLALDLESGDGDGDANALGTWEIADLAETRFSPRCPNLVENTNTNVKTRVDVFWVAPSSPGQGCILLRATVMQHRDVWFMDDGFLTKRMCEEEVDDIDTQPSIVDPCCACDEAKYELTFEGKWSRHTHPKDFPANSWRTRFSDIIGASHTLDYRFWQYGELASEGLREVAEHGSTRTLESELKDQSEHIRTIIKARGIAYPNVTGKTFAVFRVDSNHHLISLVSMVDPSPDWIVGVSGLELCLPNCSWVENKVHNLYPWDAGTDSGPSYMSADQPQVPPDVVRRIKSNFPNDPRSPFYDPTGAQMKPLATLHINRRRLYEKNCESSDSEQVPPECATNSWSRWDECTTKCGPGKQYRIREFKNPALASRHRCNNALREEKNCVGHKCAGFNEETAEGGEPEVAPSPGSSDDPQCGLSDWSEWSSCTVTCGTGEMTRSRHYLNKKAKKKCQKASRARLHETKICEAMECGGDIENEGGAGEPEEEQAGGDGGGSAEKRSIFRNFESYSQHREDYIPPVCGVTPWSDFSPCMGPCGGHGKRQRIRKVWNNNQVYGVTDPNDDGQDPCRHIKLHEEVNCTNPSCDTIVPGFCYDELTDSPCRDNDVANFWYYDHVSDQCAIYWSDRCDTNRNKFKSKEECEETCRLPRHKQELQHDGIPAIDCLVSDWVSHSCNASCGDGFQLRTRRVLRTPKYGGKPCPKHLVRLDRCYQRCDDMYSISGRGFGERRHVVRAPQPEPQDECRYSEWSAWTPCTATCGDNAVRQRTRTLMNTDLSYKCKDRVRMEKCVMMPCQLTSNDDPERW | failed
MKALRAFAIVAASLLLATGAAAQVSLSPPSGPNPFPKPLEPEKPKPRPPAPAKAPATEAKDKAKKPGDKPDAKAAPEGGAATAEDPNVDLVYGAYQRGFYKTAFELAQKRAADNDAKAMTMLGELYANALGVKRDYKKAAEWYSRAADLGDREAMFALAMARMGGRGGPPNREEAAKWLAQAAKLGEPKAAYNLALLYLDGQTFPQDVKRAAELLRMAADAGNPEAQYALATFYKEGTGVTKSIEQSVRLLQAAALAGNVPAQVEYAIALYNGTGTPKNEPAAVALLRKAARANNPIAQNRLAHVLVSGQGAPRDINEAMKWHLIAKTAGKGDLQLDQTLAQMSAEDRAKAEEAARTWIGGGK | failed
MKARQQKYCDKIANFWCHPTGKIIMSLAGKKIVLGVSGGIAAYKTPELVRRLRDRGADVRVAMTEAAKAFITPLSLQAVSGYPVSDSLLDPAAEAAMGHIELGKWADLVILAPATADLIARVAAGMANDLVSTICLATPAPVAVLPAMNQQMYRAAATQHNLEVLASRGLLIWGPDSGSQACGDIGPGRMLDPLTIVDMAVAHFSPVNDLKHLNIMITAGPTREPLDPVRYISNHSSGKMGFAIAAAAARRGANVTLVSGPVSLPTPPFVKRVDVMTALEMEAAVNASVQQQNIFIGCAAVADYRAATVAPEKIKKQATQGDELTIKMVKNPDIVAGVAALKDHRPYVVGFAAETNNVEEYARQKRIRKNLDLICANDVSQPTQGFNSDNNALHLFWQDGDKVLPLERKELLGQLLLDEIVTRYDEKNRR | failed
